The target of assay [1] is fibrinogen (Homo sapiens) (UniProt P02671). The assay is described as follows: SPR. The conditions noted are these: cited from earlier work.
For assay [2], the target named is fibronectin (Homo sapiens) (UniProt P02751). The assay is described as follows: SPR. As to conditions: cited from earlier work.
Assay [3] concerns the target vitronectin (Homo sapiens) (UniProt P04004). The assay is described as follows: SPR. The conditions noted are these: cited from earlier work.
The next assay addresses vitronectin. The assay is described as follows: ELISA; matrix component (0.25 ug/well in 0.1 M Na2CO3, overnight 4 C) immobilised on polystyrene plates; Emp forms 0-1.5 uM added for 1 h at RT, PBST washes; detected with polyclonal anti-Emp IgG and AP-conjugated anti-rabbit IgG; KD from steady-state curves, one-site binding model. A general note: An ELISA detects its analyte on a solid surface through an enzyme-linked reagent.

In the next assay the target is fibronectin (UniProt P02751 32-2477). The description is as above. The conditions noted are these: both partners purified.
A further assay concerns the target T1, collagen I (UniProt P02452 162-1218; P08123 80-1119).
T1 construct: collagen alpha-1(I) chain; collagen alpha-2(I) chain; Named only as collagen I; also called Cn I; Cn l
The assay is described as above. The conditions noted are these: both partners purified.

The target in another assay is T2, fibrinogen (UniProt P02671-2 20-644; P02675 31-491; P02679-2 27-437).
T2 construct: fibrinogen alpha chain; fibrinogen beta chain; fibrinogen gamma chain; Named only as fibrinogen; also called Fg
T2 sequence (looked up) 1: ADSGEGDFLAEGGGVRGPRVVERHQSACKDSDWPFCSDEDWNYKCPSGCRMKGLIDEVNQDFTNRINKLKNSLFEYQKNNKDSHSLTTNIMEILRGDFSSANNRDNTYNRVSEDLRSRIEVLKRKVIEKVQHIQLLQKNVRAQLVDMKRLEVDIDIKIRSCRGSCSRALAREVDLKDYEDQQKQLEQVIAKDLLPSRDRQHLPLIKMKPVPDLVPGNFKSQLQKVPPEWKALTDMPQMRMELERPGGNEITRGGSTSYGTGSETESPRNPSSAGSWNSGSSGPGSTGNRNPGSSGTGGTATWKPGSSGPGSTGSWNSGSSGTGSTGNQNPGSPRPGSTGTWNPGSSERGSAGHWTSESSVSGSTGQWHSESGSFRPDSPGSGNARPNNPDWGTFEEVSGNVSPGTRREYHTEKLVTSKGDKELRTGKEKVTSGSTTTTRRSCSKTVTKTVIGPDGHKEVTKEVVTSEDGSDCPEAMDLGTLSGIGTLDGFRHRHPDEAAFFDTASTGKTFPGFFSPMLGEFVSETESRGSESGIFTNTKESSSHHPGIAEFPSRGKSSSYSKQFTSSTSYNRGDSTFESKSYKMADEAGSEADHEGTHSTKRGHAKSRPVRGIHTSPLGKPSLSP
T2 sequence (looked up) 2: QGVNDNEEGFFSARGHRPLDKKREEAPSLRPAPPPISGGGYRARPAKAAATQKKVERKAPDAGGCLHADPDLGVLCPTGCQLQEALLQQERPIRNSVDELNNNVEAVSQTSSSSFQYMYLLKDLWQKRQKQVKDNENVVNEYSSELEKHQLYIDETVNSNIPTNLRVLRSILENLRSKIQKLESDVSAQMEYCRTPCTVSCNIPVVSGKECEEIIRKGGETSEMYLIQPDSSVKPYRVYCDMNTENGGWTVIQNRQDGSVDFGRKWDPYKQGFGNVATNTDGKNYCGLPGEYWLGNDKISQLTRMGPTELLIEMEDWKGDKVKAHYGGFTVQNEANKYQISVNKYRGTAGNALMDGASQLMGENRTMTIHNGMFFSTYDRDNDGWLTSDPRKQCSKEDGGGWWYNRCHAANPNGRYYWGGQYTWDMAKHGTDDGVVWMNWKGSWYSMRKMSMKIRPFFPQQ
T2 sequence (looked up) 3: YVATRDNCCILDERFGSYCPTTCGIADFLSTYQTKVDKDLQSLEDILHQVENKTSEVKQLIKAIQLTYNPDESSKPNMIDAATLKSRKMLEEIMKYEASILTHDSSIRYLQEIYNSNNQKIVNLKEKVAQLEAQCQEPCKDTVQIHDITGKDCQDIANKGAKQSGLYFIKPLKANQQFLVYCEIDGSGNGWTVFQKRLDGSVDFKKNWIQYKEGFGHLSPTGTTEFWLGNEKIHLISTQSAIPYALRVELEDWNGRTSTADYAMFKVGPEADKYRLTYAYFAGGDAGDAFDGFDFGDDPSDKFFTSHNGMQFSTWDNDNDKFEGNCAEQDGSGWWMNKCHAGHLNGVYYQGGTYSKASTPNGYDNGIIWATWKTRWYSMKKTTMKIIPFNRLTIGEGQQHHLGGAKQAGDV
The description is as above. As to conditions: both partners purified.

T1 sequence (P02452 162-1218, chain 1 of 2): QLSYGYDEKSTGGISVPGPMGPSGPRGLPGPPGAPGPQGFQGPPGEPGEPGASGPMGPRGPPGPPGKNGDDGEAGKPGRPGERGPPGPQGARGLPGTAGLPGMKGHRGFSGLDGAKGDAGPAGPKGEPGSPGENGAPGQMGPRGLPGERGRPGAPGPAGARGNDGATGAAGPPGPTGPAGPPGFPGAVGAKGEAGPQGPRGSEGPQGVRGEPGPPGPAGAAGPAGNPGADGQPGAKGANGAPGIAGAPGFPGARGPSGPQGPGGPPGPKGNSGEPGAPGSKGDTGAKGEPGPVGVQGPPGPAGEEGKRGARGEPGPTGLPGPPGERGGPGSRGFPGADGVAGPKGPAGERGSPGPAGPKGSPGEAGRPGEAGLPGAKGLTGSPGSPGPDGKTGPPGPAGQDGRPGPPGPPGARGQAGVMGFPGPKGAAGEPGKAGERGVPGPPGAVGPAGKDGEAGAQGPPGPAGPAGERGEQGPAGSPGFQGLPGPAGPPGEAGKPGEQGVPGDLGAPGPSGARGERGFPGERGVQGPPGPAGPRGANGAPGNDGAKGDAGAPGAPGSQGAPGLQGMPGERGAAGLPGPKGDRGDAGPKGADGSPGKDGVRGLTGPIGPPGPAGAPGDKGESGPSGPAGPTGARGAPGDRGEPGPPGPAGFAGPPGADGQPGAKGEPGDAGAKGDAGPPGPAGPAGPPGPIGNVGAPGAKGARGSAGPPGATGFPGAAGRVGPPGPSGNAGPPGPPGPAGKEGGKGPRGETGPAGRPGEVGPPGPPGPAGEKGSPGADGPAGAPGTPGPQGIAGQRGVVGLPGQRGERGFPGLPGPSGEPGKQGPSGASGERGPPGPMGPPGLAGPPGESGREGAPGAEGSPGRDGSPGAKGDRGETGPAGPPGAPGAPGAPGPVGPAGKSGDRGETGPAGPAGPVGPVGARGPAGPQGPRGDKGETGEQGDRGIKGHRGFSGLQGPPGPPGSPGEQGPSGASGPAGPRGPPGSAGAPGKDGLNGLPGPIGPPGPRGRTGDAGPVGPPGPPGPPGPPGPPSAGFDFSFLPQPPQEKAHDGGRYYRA
T1 sequence (P08123 80-1119, chain 2 of 2): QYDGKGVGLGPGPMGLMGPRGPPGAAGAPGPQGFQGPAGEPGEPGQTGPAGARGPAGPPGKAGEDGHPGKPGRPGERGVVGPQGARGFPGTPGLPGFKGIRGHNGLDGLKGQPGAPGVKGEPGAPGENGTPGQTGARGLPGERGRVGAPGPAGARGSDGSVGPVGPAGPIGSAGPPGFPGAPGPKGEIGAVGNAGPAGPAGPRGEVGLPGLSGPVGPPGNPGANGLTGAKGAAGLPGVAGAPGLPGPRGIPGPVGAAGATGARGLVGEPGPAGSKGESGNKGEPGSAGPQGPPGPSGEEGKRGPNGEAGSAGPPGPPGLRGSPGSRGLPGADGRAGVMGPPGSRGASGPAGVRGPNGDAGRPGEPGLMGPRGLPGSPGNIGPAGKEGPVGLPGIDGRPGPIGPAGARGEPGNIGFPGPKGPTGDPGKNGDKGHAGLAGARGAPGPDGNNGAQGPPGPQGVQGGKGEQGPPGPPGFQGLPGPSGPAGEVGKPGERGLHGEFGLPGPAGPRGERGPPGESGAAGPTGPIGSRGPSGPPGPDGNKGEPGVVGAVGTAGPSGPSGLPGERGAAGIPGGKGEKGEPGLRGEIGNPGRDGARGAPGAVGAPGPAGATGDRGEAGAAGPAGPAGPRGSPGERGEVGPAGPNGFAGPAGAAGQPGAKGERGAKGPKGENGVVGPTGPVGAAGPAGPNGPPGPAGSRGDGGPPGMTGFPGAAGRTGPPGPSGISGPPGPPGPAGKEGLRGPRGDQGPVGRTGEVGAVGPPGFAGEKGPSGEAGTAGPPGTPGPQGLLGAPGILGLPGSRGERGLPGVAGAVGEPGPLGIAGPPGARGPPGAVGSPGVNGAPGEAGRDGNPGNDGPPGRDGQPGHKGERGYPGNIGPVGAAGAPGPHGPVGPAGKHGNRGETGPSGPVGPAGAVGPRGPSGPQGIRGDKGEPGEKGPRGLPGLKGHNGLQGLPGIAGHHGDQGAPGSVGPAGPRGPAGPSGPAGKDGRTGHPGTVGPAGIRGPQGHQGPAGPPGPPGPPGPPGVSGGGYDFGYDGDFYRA
fibronectin, sequence (P02751 32-2477): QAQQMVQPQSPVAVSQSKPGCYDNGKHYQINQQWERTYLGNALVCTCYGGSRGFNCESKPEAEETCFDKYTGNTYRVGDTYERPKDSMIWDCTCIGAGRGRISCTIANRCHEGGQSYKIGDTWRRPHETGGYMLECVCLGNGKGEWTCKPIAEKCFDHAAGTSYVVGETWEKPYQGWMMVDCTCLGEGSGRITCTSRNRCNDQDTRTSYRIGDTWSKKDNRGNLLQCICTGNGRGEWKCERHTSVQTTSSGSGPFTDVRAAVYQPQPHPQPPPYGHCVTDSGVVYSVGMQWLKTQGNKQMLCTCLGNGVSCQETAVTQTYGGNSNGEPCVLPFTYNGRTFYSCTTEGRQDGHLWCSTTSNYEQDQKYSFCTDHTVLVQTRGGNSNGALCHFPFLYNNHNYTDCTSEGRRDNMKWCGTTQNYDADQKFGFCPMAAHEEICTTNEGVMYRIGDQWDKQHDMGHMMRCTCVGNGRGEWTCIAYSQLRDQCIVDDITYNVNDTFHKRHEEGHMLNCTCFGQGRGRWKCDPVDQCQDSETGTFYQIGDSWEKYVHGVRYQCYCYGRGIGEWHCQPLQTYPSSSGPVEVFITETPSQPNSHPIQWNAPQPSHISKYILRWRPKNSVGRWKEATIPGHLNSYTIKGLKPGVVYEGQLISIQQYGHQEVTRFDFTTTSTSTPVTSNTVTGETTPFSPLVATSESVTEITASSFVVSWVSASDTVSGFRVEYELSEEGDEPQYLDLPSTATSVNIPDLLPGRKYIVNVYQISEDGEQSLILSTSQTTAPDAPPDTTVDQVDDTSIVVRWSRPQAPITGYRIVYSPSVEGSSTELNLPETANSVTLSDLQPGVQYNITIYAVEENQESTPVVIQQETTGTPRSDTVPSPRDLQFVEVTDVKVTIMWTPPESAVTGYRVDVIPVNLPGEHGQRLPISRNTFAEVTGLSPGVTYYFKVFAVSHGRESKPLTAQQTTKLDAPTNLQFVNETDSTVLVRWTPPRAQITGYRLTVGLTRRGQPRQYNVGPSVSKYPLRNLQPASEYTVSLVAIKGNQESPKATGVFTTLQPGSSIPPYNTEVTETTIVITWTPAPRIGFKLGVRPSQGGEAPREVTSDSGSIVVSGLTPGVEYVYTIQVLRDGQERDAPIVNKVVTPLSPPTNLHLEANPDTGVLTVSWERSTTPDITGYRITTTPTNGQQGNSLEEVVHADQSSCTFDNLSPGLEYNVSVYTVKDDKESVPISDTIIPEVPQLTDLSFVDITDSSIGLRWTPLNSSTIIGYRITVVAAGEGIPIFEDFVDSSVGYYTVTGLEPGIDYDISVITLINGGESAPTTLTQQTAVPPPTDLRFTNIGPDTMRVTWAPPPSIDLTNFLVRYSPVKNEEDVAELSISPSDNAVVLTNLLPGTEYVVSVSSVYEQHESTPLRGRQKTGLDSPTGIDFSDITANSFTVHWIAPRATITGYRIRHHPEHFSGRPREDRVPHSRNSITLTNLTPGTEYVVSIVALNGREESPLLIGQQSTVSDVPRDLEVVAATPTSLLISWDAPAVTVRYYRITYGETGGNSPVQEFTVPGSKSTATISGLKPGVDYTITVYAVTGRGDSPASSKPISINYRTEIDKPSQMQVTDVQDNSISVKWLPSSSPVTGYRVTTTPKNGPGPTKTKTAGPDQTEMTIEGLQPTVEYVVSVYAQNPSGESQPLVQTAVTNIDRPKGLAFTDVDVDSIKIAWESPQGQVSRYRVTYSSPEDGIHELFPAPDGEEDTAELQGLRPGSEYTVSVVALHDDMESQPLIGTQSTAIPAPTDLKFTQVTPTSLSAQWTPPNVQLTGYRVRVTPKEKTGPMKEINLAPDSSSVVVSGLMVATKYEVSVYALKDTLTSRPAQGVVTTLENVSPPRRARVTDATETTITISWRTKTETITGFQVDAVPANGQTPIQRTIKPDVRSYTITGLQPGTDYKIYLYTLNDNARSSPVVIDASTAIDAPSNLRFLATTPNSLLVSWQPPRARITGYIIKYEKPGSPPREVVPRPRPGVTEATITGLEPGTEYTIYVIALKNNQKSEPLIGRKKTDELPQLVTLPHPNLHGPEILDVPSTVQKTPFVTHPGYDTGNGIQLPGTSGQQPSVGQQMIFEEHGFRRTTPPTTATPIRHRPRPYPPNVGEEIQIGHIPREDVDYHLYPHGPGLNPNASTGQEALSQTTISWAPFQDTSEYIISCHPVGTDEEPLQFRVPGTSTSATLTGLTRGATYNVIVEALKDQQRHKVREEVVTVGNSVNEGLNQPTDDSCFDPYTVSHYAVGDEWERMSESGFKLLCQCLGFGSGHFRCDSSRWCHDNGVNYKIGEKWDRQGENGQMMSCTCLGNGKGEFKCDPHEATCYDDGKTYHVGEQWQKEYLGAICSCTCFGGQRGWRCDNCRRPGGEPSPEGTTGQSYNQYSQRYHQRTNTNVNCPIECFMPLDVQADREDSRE
vitronectin, sequence (P04004 20-478): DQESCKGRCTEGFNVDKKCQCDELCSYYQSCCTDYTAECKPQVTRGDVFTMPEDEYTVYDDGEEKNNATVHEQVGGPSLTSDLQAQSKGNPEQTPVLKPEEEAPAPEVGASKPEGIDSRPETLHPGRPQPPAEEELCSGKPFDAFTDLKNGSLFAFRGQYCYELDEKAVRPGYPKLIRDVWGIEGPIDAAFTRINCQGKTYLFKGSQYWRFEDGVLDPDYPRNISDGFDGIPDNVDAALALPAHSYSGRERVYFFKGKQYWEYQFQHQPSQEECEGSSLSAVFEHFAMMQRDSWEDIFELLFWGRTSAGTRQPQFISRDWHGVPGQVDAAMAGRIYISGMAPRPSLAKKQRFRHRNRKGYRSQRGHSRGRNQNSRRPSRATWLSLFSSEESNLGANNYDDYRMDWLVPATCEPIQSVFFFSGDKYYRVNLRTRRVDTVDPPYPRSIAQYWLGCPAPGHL
vitronectin (Homo sapiens), sequence (P04004 399-478): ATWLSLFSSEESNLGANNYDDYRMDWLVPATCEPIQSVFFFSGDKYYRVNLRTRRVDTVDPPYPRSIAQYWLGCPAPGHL
fibronectin (Homo sapiens), sequence (P02751 32-2477): as the sequence (P02751 32-2477) above

What is called Kd is a measure of binding affinity in units of concentration. Turning to Emp (from UniProt Q7A6P4), the Kd is 91 nM in assay [1], 21 nM in assay [2] and 0.122 nM in assay [3].

B1: Emp1+2 (combination of Emp1 and Emp2) (domain or fragment)
chain: ASVTESVDKKFVVPESGINKIIPAYDEFKNSPKVNVSNLTDNKNFVASEDKLNKIADSSAASKIVDKNFVVPESKLGNIVPEYKEINNRVNVATNNPASQQVDKHFVAKGPEVNRFITQNKVNHHFITTQTHYKKVITSYKSTHVHKHVNHAKDSINKHFIVKPSESPRYTHPSQSLIIKHHFAVPGYHAH
notes: limits worked out from these positions and count on the precursor; source: E. coli (TG1 transformants, plasmid pQemp1 + 2), purified (Ni-NTA in 8 M urea, solubilized by stepwise dialysis)
On to B1, for which the equilibrium dissociation constant (Kd) in the assay with vitronectin stood at 9 nM; in the assay with fibronectin, 3 ± 2 nM; with collagen I, 31 ± 5 nM; with fibrinogen, 14 ± 3 nM.

B2: Emp2 (central fragment of Emp) (domain or fragment)
chain: YKEINNRVNVATNNPASQQVDKHFVAKGPEVNRFITQNKVNHHFITTQTHYKKVITSYKSTHVHKHVNHAKDSINKHFIVKPSESPRYTHPSQSLIIKHHFAVPGYHAH
notes: primers EmpFor2UA (+322) and EmpRev2UA (+648) relative to ATG; limits worked out from these positions and count on the precursor; source: E. coli (TG1 transformants, plasmid pQemp2), purified (Ni-NTA in 8 M urea, solubilized by stepwise dialysis)
As to B2, the Kd came out at 18 nM in the assay with vitronectin, 8 ± 3 nM with fibronectin, 13 ± 6 nM in the assay with collagen I and 9 ± 2.6 nM with fibrinogen.

B3: Emp3 (C-terminal fragment of Emp) (domain or fragment)
chain: FAVPGYHAHKFVTPGHASIKINHFCVVPQINSFKVIPPYGHNSHRMHVPSFQNNTTATHQNAKVNKAYDYKYFYSYKVVKGVKKYFSFSQSNGYKIGKPSLNIKNVNYQYAVPSYSPTHYVPEFKGSLPAPRV
notes: primers EmpFor3UA (+622) and EmpRev3UA (+1024, holds the stop codon) relative to ATG; limits worked out from these positions and count on the precursor; source: E. coli (TG1 transformants, plasmid pQemp3), purified (Ni-NTA in 8 M urea, solubilized by stepwise dialysis)
Take B3: the equilibrium dissociation constant (Kd) turned out to be 449 nM in the assay with vitronectin, 311 ± 79 nM with fibronectin, 32 ± 7 nM with collagen I and 756 ± 224 nM with fibrinogen.

B4: Emp2+3 (combination of Emp2 and Emp3; N-truncated Emp) (domain or fragment)
chain: YKEINNRVNVATNNPASQQVDKHFVAKGPEVNRFITQNKVNHHFITTQTHYKKVITSYKSTHVHKHVNHAKDSINKHFIVKPSESPRYTHPSQSLIIKHHFAVPGYHAHKFVTPGHASIKINHFCVVPQINSFKVIPPYGHNSHRMHVPSFQNNTTATHQNAKVNKAYDYKYFYSYKVVKGVKKYFSFSQSNGYKIGKPSLNIKNVNYQYAVPSYSPTHYVPEFKGSLPAPRV
notes: limits worked out from these positions and count on the precursor; source: E. coli (TG1 transformants, plasmid pQemp2 + 3), purified (Ni-NTA in 8 M urea, solubilized by stepwise dialysis)
For the molecule B4, the Kd with vitronectin was found to be 200 nM; with fibronectin, 404 ± 95 nM; with collagen I, 207 ± 44 nM; with fibrinogen, 556 ± 115 nM.

B5: full-length Emp protein (extracellular matrix protein Emp of Staphylococcus aureus, without the signal peptide) (natural protein)
chain: SVTESVDKKFVVPESGINKIIPAYDEFKNSPKVNVSNLTDNKNFVASEDKLNKIADSSAASKIVDKNFVVPESKLGNIVPEYKEINNRVNVATNNPASQQVDKHFVAKGPEVNRFITQNKVNHHFITTQTHYKKVITSYKSTHVHKHVNHAKDSINKHFIVKPSESPRYTHPSQSLIIKHHFAVPGYHAHKFVTPGHASIKINHFCVVPQINSFKVIPPYGHNSHRMHVPSFQNNTTATHQNAKVNKAYDYKYFYSYKVVKGVKKYFSFSQSNGYKIGKPSLNIKNVNYQYAVPSYSPTHYVPEFKGSLPAPRV
notes: gene of 1,023 nucleotides; numbers count on: the protein without signal peptide and without His-tag; The vector (printed pQ30-UA, Qiagen) probably adds an N-terminal His6 (surmised); Primer EmpFor1UA starts at nt +76 (codon 26), which would give 315 residues against the printed 314; also called EmpFL; source: E. coli (TG1 transformants, plasmid pQemp), purified (Ni-NTA in 8 M urea, solubilized by …)
Consider B5, for which the equilibrium dissociation constant (Kd) with vitronectin was 34 nM; with fibronectin it was 43 ± 11 nM; with collagen I it was 27 ± 5 nM; with fibrinogen, 70 ± 1 nM.

These data come from paper PMC5651841, “The Staphylococcus aureus extracellular matrix protein (Emp) has a fibrous structure and binds to different extracellular matrices” (Scientific Reports, 2017).
